According to paper PMC5339894, “G196 epitope tag system: a novel monoclonal antibody, G196, recognizes the small, soluble peptide DLVPR with high affinity” (Scientific Reports, 2017):
“Also recorded” adds a separate entry of the source.

How the values were obtained:
[1] = system: FLAG-HA-Emerald GFP tagged with C-terminal G196-tag (FHG-G196); assay: Western blot analysis of HeLa cell extracts; type: cell-based, human
Source text: (§1) Short peptides and paired mAbs specific for the sequences of interest are powerful and irreplaceable tools for scientific research. To ascertain the possible versatility of G196-tag as a versatile fusion tag, we generated several human and yeast expression constructs in which the G196-tag was fused to reporter proteins. First, we expressed FLAG- and HA-tagged Emerald GFP (hereafter abbreviated FHG) as a reporter protein, C-terminally fused with a G196-tag (6P12, SDLVPRGSP) in HeLa cells.
(§2) Figure 5 Application of the G196 epitope tag system for scientific research. (a) Western blot and immunoprecipitation (IP) analysis of FLAG-HA-Emerald GFP (FHG) tagged with C-terminal G196-tag in HeLa cells using mAb G196. HeLa cells were transfected with FHG/pcDNA3 or FHG-G196/pcDNA3. After incubation for two days, the cells were lysed and subjected to Western blotting with anti-FLAG (M2) or G196 mAbs (left panel). These lysates were immunoprecipitated with anti-FLAG (M2) (lanes 7, 8) or G196 (lanes 9, 10) mAbs and subjected to Western blotting with anti-FLAG polyclonal antibody (right panel). (b) Immunofluorescence of GFP- and G196-tagged nuclear protein in HeLa cells using mAb G196. […] Protein extracts were separated by SDS-PAGE and detected with mAb G196 and anti-GFP polyclonal antibody (left panel). […] Asterisk indicates non-specific band also detected using the second Ab alone. […]

[2] = system: cellular proteins of HeLa cells; assay: Western blot cross-reaction with cellular proteins; type: cell-based, human; conditions: HeLa cell extracts, Western blot (lanes 3, 4)
Source text: as §1, §2

[3] = system: FLAG-HA-Emerald GFP tagged with C-terminal G196-tag (FHG-G196); assay: immunoprecipitation (IP) from HeLa cell extracts; type: cell-based, human
Source text: as §1
Figure 5 Application of the G196 epitope tag system for scientific research. (a) Western blot and immunoprecipitation (IP) analysis of FLAG-HA-Emerald GFP (FHG) tagged with C-terminal G196-tag in HeLa cells using mAb G196. HeLa cells were transfected with FHG/pcDNA3 or FHG-G196/pcDNA3. After incubation for two days, the cells were lysed and subjected to Western blotting with anti-FLAG (M2) or G196 mAbs (left panel). These lysates were immunoprecipitated with anti-FLAG (M2) (lanes 7, 8) or G196 (lanes 9, 10) mAbs and subjected to Western blotting with anti-FLAG polyclonal antibody (right panel). (b) Immunofluorescence of GFP- and G196-tagged nuclear protein in HeLa cells using mAb G196. HeLa cells were transfected with FHG-G196-NAC1/pcDNA3. After incubation for two days, the cells were fixed and incubated with mAb G196 and anti-GFP polyclonal Ab, then stained with Alexa-594 anti-mouse and Alexa-488 anti-rabbit secondary antibodies. (c) Western blot and chromatin immunoprecipitation (ChIP) analysis of Atf1-G196-GFP in fission yeast using mAb G196. A DNA fragment containing the transcription factor atf1 gene fused with the G196 epitope-GFP gene was replaced with the genomic atf1 gene. Protein extracts were separated by SDS-PAGE and detected with mAb G196 and anti-GFP polyclonal antibody (left panel). GFP-Iws1 expressing cells were used as a negative control. Asterisk indicates non-specific band also detected using the second Ab alone. Schematic representation of the tdh1 locus (right upper panel). The promoter of the tdh1 gene harbors a CRE consensus site. […]

Atf1-G196-GFP = assay: Western blot analysis of fission yeast extracts; type: cell-based; conditions: C-terminally 3 × G196-tagged Atf1, mAb G196 1:2000
Source text: C-terminal tagging of the atf1 gene (Supplementary Fig. 1) was accomplished using the G196t2 primer. This primer contains a sequence homologous to a portion of the atf1 coding sequence, a sequence for 3 × G196-tag, and a sequence homologous to another primer, com5. In the first PCR step, two sequences flanking the translational stop codon of the atf1 gene were amplified with the primers t1 and G196t2, and with the primers t3 and t4, using the genomic DNA as a template. The GFP-kanMX cassette was also amplified with the primers com5 and com6, using pFA6a-GFP(S65T)-kanMX as a template. The three PCR products were fused together in the second PCR step with the primers t1 and t4 to produce a DNA fragment for homologous recombination.
Cells (1 × 10^8) growing exponentially in YES medium at 30 °C were harvested to obtain whole cell extracts as described elsewhere. Samples were resolved by SDS-PAGE on 7% gels, semi-dry blotted to PVDF membranes, and detected using an ECL detection system (PerkinElmer, Waltham, MA, USA). Mouse mAb G196 (1:2000) and anti-GFP rabbit polyclonal antibody (1:1000) were used as primary antibodies. HRP-conjugated goat anti-mouse antibody (1:5000, Rockland Immunochemicals) and anti-rabbit antibody (1:2000, Jackson ImmunoResearch Laboratories) were used as secondary antibodies.

[4] = system: Atf1-G196-GFP at the tdh1 promoter; assay: chromatin immunoprecipitation (ChIP) in fission yeast; type: cell-based; conditions: promoter of tdh1 gene (CRE consensus site); 3 μL mAb G196; qPCR
Description: Yeast cells were grown in YES medium at 30 °C to mid-log phase. After formaldehyde crosslinking and quenching, 1 × 10^8 cells were harvested to obtain 2 mL of soluble input extract. M-280 anti-mouse sheep antibody-conjugated magnetic beads (112-02, ThermoFisher Scientific) were used for immunoprecipitation: 200 μL of the beads were washed twice with extraction buffer (50 mM HEPES-KOH (pH 7.5), 140 mM NaCl, 1 mM EDTA, 1% Triton X-100, and 0.1% sodium deoxycholate), and then incubated in 1 mL of extraction buffer containing 3 μL of mAb G196 for 1 h at 4 °C. The beads were again washed twice with extraction buffer to remove unbound antibodies and incubated for 1 h with 800 μL of input extract at 4 °C. The relative concentrations of the target sequences were determined using SYBR Premix ExTaq (RR041A, TaKaRa Bio, Shiga, Japan) and a Thermal Cycler Dice Real Time System TP800 (TaKaRa Bio), according to the manufacturer’s instructions. The primers for detecting the −1 kb region were 5′-[…]-3′ and 5′-[…]-3′, and for the tdh1 CRE region the primers were 5′-[…]-3′ and 5′-[…]-3′.

B1: mAb G196: mouse mAb (IgG1) raised against GST protein bacterially expressed using the pGEX-2T vector (antibody, V domains shown)
VH: QVKLQESGAELVKPGASVKLSCKASGYTFTNYWMHWVKLRPGQGFEWIGEINPSNGGSNYNEKFKRKATLTVDKSSSTAYMQLSSLTSEDSAVFYCSIWDSYFDYWGQGTTLTVSS
VL: NIVMTQSPKSMSMSVGERVTLTCKASENVVTYVSWYQQKPEQSPKLLIYGASNRYTGVPDRFTGSGSATDFTLTISSVQAEDLADYHCGQGYSYPYTFGGGTKLEIK
B1 was tested, and the “detection of FHG (without G196-tag) by Western blot” value ([1]; HeLa cells transfected with FHG (lane 3)) was “not detected”, the “detection of FHG-G196 by Western blot” value ([1]; HeLa cells transfected with FHG-G196, two days (lanes 2, 4)) was “detected as a single band; also recorded: as a single band at the proper molecular weight” and the “cross-reaction with cellular proteins” value [2] was “did not cross-react with cellular proteins; also recorded: did not (cross-)react with cellular proteins”. For the same molecule, the “immunoprecipitation of reporter lacking G196-tag” value ([3]; HeLa cell extracts, FHG (lane 9)) was “did not immunoprecipitate reporter protein lacking the G196-tag”, the “immunoprecipitation of FHG-G196” value ([3]; HeLa cell extracts, Western blot with anti-FLAG polyclonal antibody (lane 10)) was “efficiently immunoprecipited reporter protein” and the “immunoprecipitation of FHG-G196 compared with anti-FLAG” value ([3]; lane 10 versus lane 8) was “comparable to that of FLAG immunoprecipitates”. For the same molecule, the “detection of Atf1 by Western blot” value (Atf1-G196-GFP) was “detected the Atf1 protein” and the “ChIP of Atf1” value [4] was “enriched the Atf1 protein at the promoter of the tdh1 gene”.
